Reference: patent US20100189695A1, “IRAK-1 AS REGULATOR OF DISEASES AND DISORDERS” (priority 2008, published 2010)

Target: NFAT (in Hela cells) (human)
Assay: cell-based or functional assay

Flag tagged full length wild type human IRAK-1 (pFlag-IRAK-1)
NFAT-luciferase reporter activity in Hela cells: 80 % reduction
